The chains are these.
B1: CIgG4F5A1(RS) (Fc fusion)
chain 1: GPPCPPCPAPEFLGGPSVFLFPPKPKDTLMISRTPEVTCVVVDVSQEDPEVQFNWYVDGVEVHNAKTKPREEQFNSTYRVVSVLTVLHQDWLNGKEYKCKVSNKGLPSSIEKTISKAKGQPREPQVYTLPPCQEEMTKNQVSLWCLVKGFYPSDIAVEWESNGQPENNYKTTPPVLDSDGSFFLYSRLTVDKSRWQEGNVFSCSVMHEALHNHYTQKSLSLSLGKRSDVQLQESGGGLVQPGGSLRLSCAASGSIFSIDIMGWYRQAPGKQRELVATMPEGNYINYADSVKGRLTLSRDKGKNTVYLQLNSLKPEDTAVYYCYGFGVREGRGNVYWGQGTQVTVS
chain 2: GPPCPPCPAPEFLGGPSVFLFPPKPKDTLMISRTPEVTCVVVDVSQEDPEVQFNWYVDGVEVHNAKTKPREEQFNSTYRVVSVLTVLHQDWLNGKEYKCKVSNKGLPSSIEKTISKAKGQPREPQVCTLPPSQEEMTKNQVSLSCAVKGFYPSDIAVEWESNGQPENNYKTTPPVLDSDGSFFLVSRLTVDKSRWQEGNVFSCSVMHEALHNHYTQKSLSLSLGKRSEVQLLESGGGLVQPGGSLRLSCAASGFTFGNYDMAWVRQAPGKRPEWVSSIDTGGDITHYADSVKGRFTISRDNAKNTLYLQMNSLRPEDTAVYWCATDEEYALGPNEFDYYGQGTLVTVSS
B2: NIgG4F5A1(G4S)2 (Fc fusion)
chain 1: DVQLQESGGGLVQPGGSLRLSCAASGSIFSIDIMGWYRQAPGKQRELVATMPEGNYINYADSVKGRLTLSRDKGKNTVYLQLNSLKPEDTAVYYCYGFGVREGRGNVYWGQGTQVTVSGGGGSGGGGSGPPCPPCPAPEFLGGPSVFLFPPKPKDTLMISRTPEVTCVVVDVSQEDPEVQFNWYVDGVEVHNAKTKPREEQFNSTYRVVSVLTVLHQDWLNGKEYKCKVSNKGLPSSIEKTISKAKGQPREPQVYTLPPCQEEMTKNQVSLWCLVKGFYPSDIAVEWESNGQPENNYKTTPPVLDSDGSFFLYSRLTVDKSRWQEGNVFSCSVMHEALHNHYTQKSLSLSLGK
chain 2: EVQLLESGGGLVQPGGSLRLSCAASGFTFGNYDMAWVRQAPGKRPEWVSSIDTGGDITHYADSVKGRFTISRDNAKNTLYLQMNSLRPEDTAVYWCATDEEYALGPNEFDYYGQGTLVTVSSGGGGSGGGGSGPPCPPCPAPEFLGGPSVFLFPPKPKDTLMISRTPEVTCVVVDVSQEDPEVQFNWYVDGVEVHNAKTKPREEQFNSTYRVVSVLTVLHQDWLNGKEYKCKVSNKGLPSSIEKTISKAKGQPREPQVCTLPPSQEEMTKNQVSLSCAVKGFYPSDIAVEWESNGQPENNYKTTPPVLDSDGSFFLVSRLTVDKSRWQEGNVFSCSVMHEALHNHYTQKSLSLSLGK
B3: CIgG4F4A1(G4S)2 (Fc fusion)
chain 1: GPPCPPCPAPEFLGGPSVFLFPPKPKDTLMISRTPEVTCVVVDVSQEDPEVQFNWYVDGVEVHNAKTKPREEQFNSTYRVVSVLTVLHQDWLNGKEYKCKVSNKGLPSSIEKTISKAKGQPREPQVYTLPPCQEEMTKNQVSLWCLVKGFYPSDIAVEWESNGQPENNYKTTPPVLDSDGSFFLYSRLTVDKSRWQEGNVFSCSVMHEALHNHYTQKSLSLSLGKGGGGSGGGGSDVQLQESGGGLVQAGGSLRLSCAVSGLSFSSMGWFRQPPGKEREFVAAISLYSGSTYYADSVKGRFTISSDNAKSTVYLQMNSLKPEDAAVYFCAADRQRTWSTFYASRQATYNYWGQGTQVTVTS
chain 2: GPPCPPCPAPEFLGGPSVFLFPPKPKDTLMISRTPEVTCVVVDVSQEDPEVQFNWYVDGVEVHNAKTKPREEQFNSTYRVVSVLTVLHQDWLNGKEYKCKVSNKGLPSSIEKTISKAKGQPREPQVCTLPPSQEEMTKNQVSLSCAVKGFYPSDIAVEWESNGQPENNYKTTPPVLDSDGSFFLVSRLTVDKSRWQEGNVFSCSVMHEALHNHYTQKSLSLSLGKGGGGSGGGGSEVQLLESGGGLVQPGGSLRLSCAASGFTFGNYDMAWVRQAPGKRPEWVSSIDTGGDITHYADSVKGRFTISRDNAKNTLYLQMNSLRPEDTAVYWCATDEEYALGPNEFDYYGQGTLVTVSS
B4: NIgG4F5A1(RS) (Fc fusion)
chain 1: DVQLQESGGGLVQPGGSLRLSCAASGSIFSIDIMGWYRQAPGKQRELVATMPEGNYINYADSVKGRLTLSRDKGKNTVYLQLNSLKPEDTAVYYCYGFGVREGRGNVYWGQGTQVTVSRSGPPCPPCPAPEFLGGPSVFLFPPKPKDTLMISRTPEVTCVVVDVSQEDPEVQFNWYVDGVEVHNAKTKPREEQFNSTYRVVSVLTVLHQDWLNGKEYKCKVSNKGLPSSIEKTISKAKGQPREPQVYTLPPCQEEMTKNQVSLWCLVKGFYPSDIAVEWESNGQPENNYKTTPPVLDSDGSFFLYSRLTVDKSRWQEGNVFSCSVMHEALHNHYTQKSLSLSLGK
chain 2: EVQLLESGGGLVQPGGSLRLSCAASGFTFGNYDMAWVRQAPGKRPEWVSSIDTGGDITHYADSVKGRFTISRDNAKNTLYLQMNSLRPEDTAVYWCATDEEYALGPNEFDYYGQGTLVTVSSRSGPPCPPCPAPEFLGGPSVFLFPPKPKDTLMISRTPEVTCVVVDVSQEDPEVQFNWYVDGVEVHNAKTKPREEQFNSTYRVVSVLTVLHQDWLNGKEYKCKVSNKGLPSSIEKTISKAKGQPREPQVCTLPPSQEEMTKNQVSLSCAVKGFYPSDIAVEWESNGQPENNYKTTPPVLDSDGSFFLVSRLTVDKSRWQEGNVFSCSVMHEALHNHYTQKSLSLSLGK
B5: CIgG4F5A1(G4S)1 (Fc fusion)
chain 1: GPPCPPCPAPEFLGGPSVFLFPPKPKDTLMISRTPEVTCVVVDVSQEDPEVQFNWYVDGVEVHNAKTKPREEQFNSTYRVVSVLTVLHQDWLNGKEYKCKVSNKGLPSSIEKTISKAKGQPREPQVYTLPPCQEEMTKNQVSLWCLVKGFYPSDIAVEWESNGQPENNYKTTPPVLDSDGSFFLYSRLTVDKSRWQEGNVFSCSVMHEALHNHYTQKSLSLSLGKGGGGSDVQLQESGGGLVQPGGSLRLSCAASGSIFSIDIMGWYRQAPGKQRELVATMPEGNYINYADSVKGRLTLSRDKGKNTVYLQLNSLKPEDTAVYYCYGFGVREGRGNVYWGQGTQVTVS
chain 2: GPPCPPCPAPEFLGGPSVFLFPPKPKDTLMISRTPEVTCVVVDVSQEDPEVQFNWYVDGVEVHNAKTKPREEQFNSTYRVVSVLTVLHQDWLNGKEYKCKVSNKGLPSSIEKTISKAKGQPREPQVCTLPPSQEEMTKNQVSLSCAVKGFYPSDIAVEWESNGQPENNYKTTPPVLDSDGSFFLVSRLTVDKSRWQEGNVFSCSVMHEALHNHYTQKSLSLSLGKGGGGSEVQLLESGGGLVQPGGSLRLSCAASGFTFGNYDMAWVRQAPGKRPEWVSSIDTGGDITHYADSVKGRFTISRDNAKNTLYLQMNSLRPEDTAVYWCATDEEYALGPNEFDYYGQGTLVTVSS
B6: NIgG4F5A1(G4S)3 (Fc fusion)
chain 1: DVQLQESGGGLVQPGGSLRLSCAASGSIFSIDIMGWYRQAPGKQRELVATMPEGNYINYADSVKGRLTLSRDKGKNTVYLQLNSLKPEDTAVYYCYGFGVREGRGNVYWGQGTQVTVSGGGGSGGGGSGGGGSGPPCPPCPAPEFLGGPSVFLFPPKPKDTLMISRTPEVTCVVVDVSQEDPEVQFNWYVDGVEVHNAKTKPREEQFNSTYRVVSVLTVLHQDWLNGKEYKCKVSNKGLPSSIEKTISKAKGQPREPQVYTLPPCQEEMTKNQVSLWCLVKGFYPSDIAVEWESNGQPENNYKTTPPVLDSDGSFFLYSRLTVDKSRWQEGNVFSCSVMHEALHNHYTQKSLSLSLGK
chain 2: EVQLLESGGGLVQPGGSLRLSCAASGFTFGNYDMAWVRQAPGKRPEWVSSIDTGGDITHYADSVKGRFTISRDNAKNTLYLQMNSLRPEDTAVYWCATDEEYALGPNEFDYYGQGTLVTVSSGGGGSGGGGSGGGGSGPPCPPCPAPEFLGGPSVFLFPPKPKDTLMISRTPEVTCVVVDVSQEDPEVQFNWYVDGVEVHNAKTKPREEQFNSTYRVVSVLTVLHQDWLNGKEYKCKVSNKGLPSSIEKTISKAKGQPREPQVCTLPPSQEEMTKNQVSLSCAVKGFYPSDIAVEWESNGQPENNYKTTPPVLDSDGSFFLVSRLTVDKSRWQEGNVFSCSVMHEALHNHYTQKSLSLSLGK
B7: NIgG4F5A1(G4S)1 (Fc fusion)
chain 1: DVQLQESGGGLVQPGGSLRLSCAASGSIFSIDIMGWYRQAPGKQRELVATMPEGNYINYADSVKGRLTLSRDKGKNTVYLQLNSLKPEDTAVYYCYGFGVREGRGNVYWGQGTQVTVSGGGGSGPPCPPCPAPEFLGGPSVFLFPPKPKDTLMISRTPEVTCVVVDVSQEDPEVQFNWYVDGVEVHNAKTKPREEQFNSTYRVVSVLTVLHQDWLNGKEYKCKVSNKGLPSSIEKTISKAKGQPREPQVYTLPPCQEEMTKNQVSLWCLVKGFYPSDIAVEWESNGQPENNYKTTPPVLDSDGSFFLYSRLTVDKSRWQEGNVFSCSVMHEALHNHYTQKSLSLSLGK
chain 2: EVQLLESGGGLVQPGGSLRLSCAASGFTFGNYDMAWVRQAPGKRPEWVSSIDTGGDITHYADSVKGRFTISRDNAKNTLYLQMNSLRPEDTAVYWCATDEEYALGPNEFDYYGQGTLVTVSSGGGGSGPPCPPCPAPEFLGGPSVFLFPPKPKDTLMISRTPEVTCVVVDVSQEDPEVQFNWYVDGVEVHNAKTKPREEQFNSTYRVVSVLTVLHQDWLNGKEYKCKVSNKGLPSSIEKTISKAKGQPREPQVCTLPPSQEEMTKNQVSLSCAVKGFYPSDIAVEWESNGQPENNYKTTPPVLDSDGSFFLVSRLTVDKSRWQEGNVFSCSVMHEALHNHYTQKSLSLSLGK
B8: CIgG4F4A1(G4S)3 (Fc fusion)
chain 1: GPPCPPCPAPEFLGGPSVFLFPPKPKDTLMISRTPEVTCVVVDVSQEDPEVQFNWYVDGVEVHNAKTKPREEQFNSTYRVVSVLTVLHQDWLNGKEYKCKVSNKGLPSSIEKTISKAKGQPREPQVYTLPPCQEEMTKNQVSLWCLVKGFYPSDIAVEWESNGQPENNYKTTPPVLDSDGSFFLYSRLTVDKSRWQEGNVFSCSVMHEALHNHYTQKSLSLSLGKGGGGSGGGGSGGGGSDVQLQESGGGLVQAGGSLRLSCAVSGLSFSSMGWFRQPPGKEREFVAAISLYSGSTYYADSVKGRFTISSDNAKSTVYLQMNSLKPEDAAVYFCAADRQRTWSTFYASRQATYNYWGQGTQVTVTS
chain 2: GPPCPPCPAPEFLGGPSVFLFPPKPKDTLMISRTPEVTCVVVDVSQEDPEVQFNWYVDGVEVHNAKTKPREEQFNSTYRVVSVLTVLHQDWLNGKEYKCKVSNKGLPSSIEKTISKAKGQPREPQVCTLPPSQEEMTKNQVSLSCAVKGFYPSDIAVEWESNGQPENNYKTTPPVLDSDGSFFLVSRLTVDKSRWQEGNVFSCSVMHEALHNHYTQKSLSLSLGKGGGGSGGGGSGGGGSEVQLLESGGGLVQPGGSLRLSCAASGFTFGNYDMAWVRQAPGKRPEWVSSIDTGGDITHYADSVKGRFTISRDNAKNTLYLQMNSLRPEDTAVYWCATDEEYALGPNEFDYYGQGTLVTVSS

The EC50 is the concentration needed to bring the measured effect to its halfway point.

mixture of three Der p 2 specific recombinant human IgE clones H10, H12, P4E (human), sequence (P01854 other isoform, or with tags, fused parts or gaps): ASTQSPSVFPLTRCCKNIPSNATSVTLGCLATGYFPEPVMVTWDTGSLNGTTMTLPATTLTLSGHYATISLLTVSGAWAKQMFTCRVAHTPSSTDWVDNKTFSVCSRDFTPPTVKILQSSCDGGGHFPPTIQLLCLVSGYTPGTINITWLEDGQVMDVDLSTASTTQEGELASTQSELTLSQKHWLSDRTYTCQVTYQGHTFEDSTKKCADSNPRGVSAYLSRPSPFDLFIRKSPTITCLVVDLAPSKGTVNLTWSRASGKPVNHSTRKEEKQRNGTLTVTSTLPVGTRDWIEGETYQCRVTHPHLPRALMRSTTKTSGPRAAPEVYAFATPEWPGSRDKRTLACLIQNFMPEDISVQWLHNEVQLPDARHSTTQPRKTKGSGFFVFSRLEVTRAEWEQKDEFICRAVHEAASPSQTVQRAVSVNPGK

This experiment has as its target mixture of three Der p 2 specific recombinant human IgE clones H10, H12, P4E (human) (UniProt P01854). In words: RBL-SX38 IgE displacement, FACS.
Regarding B1, the Max effect/effect 1 µM is 0%. As for B2, the EC50 turned out to be 21.2 nM and the Max effect/effect 1 µM is 75%. On the same counts, the results for B3 are 0.9 nM and 100%. The matching figures for B4: 0.7 nM and 99%. As for B5, the Max effect/effect 1 µM came out at 19%. B6: the EC50 stood at 34.8 nM and the Max effect/effect 1 µM worked out at 48%. As for B7, the EC50 was determined as 28.9 nM and the Max effect/effect 1 µM was determined as 67%.

Regarding B8, the EC50 is 1.2 nM and the Max effect/effect 1 µM stood at 97%.
